B1: nanobody NpE3, His8-tagged (VHH)
VHH: QVQLVESGGGLVRPGGSLRLSCAASGFTFSNAYMTWIRQAPGKDLEWVSSIYYGDMTSYATSVKGRFTISRDNAKNTLYLQMNNLKPEDSAIYYCTKGDERGQGTQVTVSS
notes: as the VHH of m13; also called OROV Np Nb E3 H8; not shown: His8, C-terminal, kept
B2: biotinylated nanobody SpE8 (AviTag-His9) (VHH)
VHH: QVQLVESGGGFVRAGDSLRLSCAASGRAFSTYAMGWFRQAPGKEREFVAGITLGSRITQYADSVKGRFTISRDNARQTMYLQMNNLQPEDTADYYCAARGQGSPPLRNRWSADDYNYWGQGLQVTVSS
notes: VHH SpE8 from an immunised llama; also called bSpE8; OROV Gc Spike Nb E8 BAP H9; not shown: AviTag, C-terminal, kept
B3: biotinylated nanobody SpC6 (AviTag-His9) (VHH)
VHH: QVQLVESGGGSVQAGGSLRLSCAASGRTFSRYAMGWLRQAPGKEREFVAAITWSGGNTYYADSVKGRFTITRDDAKNTVYLQINNPKPEDTAVYYCAAGTQTGRIRDKGPSYWGQGTQVTVSS
notes: VHH SpC6 from an immunised llama; also called bSpC6; OROV Gc Spike Nb C6 BAP H9; not shown: AviTag, C-terminal, kept
B4: biotinylated nanobody SpA7 (AviTag-His9) (VHH)
VHH: QVQLVESGGGSVQAGGSLRLSCAASGRTFSAYVMGWFRQAPGKEREFVAAIRRSYGSTYYADSVKGRFTISTDNAKNTVTLQMNSLKPEDTAIYYCAAIRQGGGWGSSAVDYWGQGTQVTVAS
notes: VHH A7 against Gc spike from an immunised llama; also called OROV Gc Spike Nb A7 BAP H9; not shown: AviTag, C-terminal, kept
B5: nanobody NpE2, His8-tagged (VHH)
VHH: QVQLVESGGGLVQAGDSLRLSCVASGFTPNPAVSWVRQAPGKDLEWVSSIYHGDITSYATSVKGRFTISRDNAKNTVYLQMNSLKPEDSAIYYCTKGDSRGQGTQVTVSS
notes: as the VHH of m12; also called OROV Np Nb E2 H8; not shown: His8, C-terminal, kept
B6: nanobody NpD2, His8-tagged (VHH)
VHH: QVQLVESGGGLAQPGGSLRLSCAASGFTLDYYSIGWFRQAPGKEREGVSCISSGGSTYYADSVKGRFAISSDNAKNTVYLQMNSLKPEDTAVYYCAADIMSCPGKYSAVADYWGQGTQVIVDS
notes: as the VHH of m11; also called OROV Np Nb D2 H8; not shown: His8, C-terminal, kept
B7: OROV nucleoprotein (N), recombinant, strain BeAn19991 (natural protein, Oropouche virus strain BeAn19991)
chain: MSEFIFNDVPQRTTSTFDPEAAYVAFEARYGQVLNAGVVRVFFLNQKKAKDVLRKTSRPMVDLTFGGVQFAMVNNHFPQFQSNPVPDNGLTLHRLSGYLARWAFTQMRSPIKQAEFRATVVVPLAEVKGCTWNDGDAMYLGFAAGAEMFLQTFTFFPLVIEMHRVLKDGMDVNFMKKVLRQRYGQKTAEQWMREEIVAVRAAFEAVGTLAWARTGFSPAARDFLRQFGIDI
B8: OROV nucleoprotein (N) of strain BeAn19991, native, in virus stocks and infected cells (natural protein, Oropouche virus strain BeAn19991)
chain: B7 chain
notes: N protein of Oropouche virus strain BeAn19991, GenBank AJE24680.1, as made by the virus; also called OROV BeAn19991
B9: biotinylated nanobody SpA9 (AviTag-His9) (VHH)
VHH: QVQLVESGGGLVQPGGSLTLSCAASGFTFSTLAMAWFRQAPGKERESVAVINRSGGIVNYADSVKGRFTITRDNAKNMVYLQMNSLKPEDTAVYYCAARTGYAYVRVSDYDSWGQGTQVTVSS
notes: VHH A9 against Gc spike from an immunised llama; also called OROV Gc Spike Nb A9 BAP H9; not shown: AviTag, C-terminal, kept
B10: biotinylated nanobody SpB6 (AviTag-His9) (VHH)
VHH: QVQLVESGGGLVQPGDSLRLSCAASGRTFSNYAMGWFRQAPGKEREKVAALSRSGTSTYYLDRVKGRFTISRDNTKNMVYLQMNSLEPEDTAVYYCAADPLFQNAAYHYSGQGTQVTVST
notes: VHH SpB6 from an immunised llama; also called bSpB6; OROV Gc Spike Nb B6 BAP H9; not shown: AviTag, C-terminal, kept
B11: nanobody NpG1, His8-tagged (VHH)
VHH: QVQLVESGGGLVQPGDSLRLSCAASGRTFTDYPMAWFRQAPGKEREFVTAINWSGGATYYADSVKGRFTISRDNTRNTVFLQMNSLKPEDTAVYYCAGGSGRLSYNMDKEYIYWGQGIQVTVSS
notes: as the VHH of m15; also called OROV Np Nb G1 H8; not shown: His8, C-terminal, kept
B12: nanobody NpA2, His8-tagged (VHH)
VHH: QVQLVESGGGLVQPGGSVRLSCAASGGIFSFNAMAWYRQAPGKQRDIVALIANDGNTNYADSVKGRFTISRDNAKNTVYLQMNSLQPEDTAVYYCSALRRGAQDWGQGTQVTVSS
notes: as the VHH of m10; also called OROV Np Nb A2 H8; not shown: His8, C-terminal, kept

The target of assay [1] is B7. Kind of assay: ELISA. The conditions noted are these: both partners purified. (In an ELISA, binding on a coated surface is turned into a signal by an enzyme label.)
The target of assay [2] is T1, OROV Gc spike region (residues 482-894 of the M polyprotein), recombinant, strain BeAn19991 (Oropouche virus strain BeAn19991, UniProt A0A0B5CLT0).
T1 construct: Gc spike region (head and stalk domains) of the M polyprotein of Oropouche virus strain BeAn19991, GenBank AJE24679.1, residues 482-894; also called Gc spike domain
In words: ELISA; […], biotinylated nanobody 2 µg/mL, […], room temperature. The conditions noted are these: both partners purified.

Assay [3] concerns the target T2, biotinylated nanobody-Fc fusion bFcNpD2 (C-terminal AviTag) (llama).
T2 construct: as the VHH of m11; also called OROV FcNpD2 BAP; not shown: Fc (human IgG1 hinge and Fc domains 2 and 3), C-terminal, kept; AviTag, C-terminal, kept
Kind of assay: ELISA.

Assay [4] addresses T3, nanobody-Fc fusion FcNpD2, HRP-conjugated (llama).
T3 construct: as the VHH of m11; also called OROV FcNpD2; not shown: Fc (human IgG1 hinge and Fc domains 2 and 3), C-terminal, kept
Kind of assay: ELISA.

This is an account of results in article PMC12423313, “Protein-based tools for the detection and characterisation of Oropouche virus infection” (EMBO Molecular Medicine, 2025).

B1: the binding result in assay [1] is given as “binds”.

B2: the binding result in assay [2] is on record as “binds”.

For B3, the binding result in assay [2] is given as “binds”.

As for B4, the binding result in assay [2] was “binds”.

For B5, the binding result in assay [1] is reported as “binds”.

B6: the binding result in assay [1] is “binds”.

In the case of B7, the binding result in assay [3] (both partners purified) and in assay [4] (both partners purified) was “binds” each time.

Take B8: the binding result in assay [3] (one partner purified) and in assay [4] (one partner purified) was “binds” in each case.

Take B9: in assay [2], the binding result is on record as “binds”.

For B10, the binding result in assay [2] is given as “binds”.

With B11, in assay [1], the binding result is recorded as “binds”.

Consider B12, for which the binding result in assay [1] was “binds”.
